Laboratory results reported in publication PMC4797267, “The CSB chromatin remodeler and CTCF architectural protein cooperate in response to oxidative stress”.

Target: T1, MBP-CTCF (zinc fingers 1-11) (UniProt P49711 269-579)
T1 sequence: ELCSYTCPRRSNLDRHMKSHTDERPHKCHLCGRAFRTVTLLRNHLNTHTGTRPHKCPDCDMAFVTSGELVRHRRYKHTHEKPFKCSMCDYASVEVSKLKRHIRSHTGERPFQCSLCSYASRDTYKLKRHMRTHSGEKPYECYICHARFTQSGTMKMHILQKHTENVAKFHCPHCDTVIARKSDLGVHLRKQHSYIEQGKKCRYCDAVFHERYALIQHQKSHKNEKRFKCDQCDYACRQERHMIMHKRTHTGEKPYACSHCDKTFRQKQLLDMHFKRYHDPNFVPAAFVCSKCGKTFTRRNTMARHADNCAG
Assay: EMSA; 100 uM ZnSO4, 6 mM Mg2+; no CSB; 30 mM HEPES pH 7.9, 60 mM NaCl, 6% glycerol, 6 mM MgCl2, 100 uM ZnSO4, 0.02% NP40, 30 C 10 min; 1 nM DNA; 5% native PAGE, 0.5x TBE
Settings: protein: recombinant; tags: MBP; label: 32P (body label, PCR with 32P-dATP); blunt

B1: 200 bp DNA fragment with CTCF-binding site (Fig. S4B) (dsDNA)
DNA 1: CACACCGAGTTCATCCCTTATGTGATGGACCCTCCACGAGGGGGCCCTGGAGAATCCCGGTGCCGAGGCTGCAGAATTGGTCGTAGACAGCTCTAGCACCGCTTAAACGCACGTACGCGCTGTCCCCCGCGTTTTAACCGCCAAGGGGATTACTCCCTAGTCTCCAGGCACGTGTCAGATATATACATCCTGT
DNA 2: ACAGGATGTATATATCTGACACGTGCCTGGAGACTAGGGAGTAATCCCCTTGGCGGTTAAAACGCGGGGGACAGCGCGTACGTGCGTTTAAGCGGTGCTAGAGCTGTCTACGACCAATTCTGCAGCCTCGGCACCGGGATTCTCCAGGGCCCCCTCGTGGAGGGTCCATCACATAAGGGATGAACTCGGTGTG
Question: Does B1 bind?
Answer: Result: binds
